Measured values reported in US20220365073A1 (TECHNION RESEARCH AND DEVELOPMENT FOUNDATION, published 2022).

Target: Ubiquitin-B+1 (UBB+1), untagged, expressed in HEK293FT cells
Test: co-IP with anti-UBB+1 antibody from HEK293FT cells, immunoblot; MS/MS of co-purified proteins

B1: UCH-L1 (Ubiquitin C-terminal hydrolase L1), endogenous in HEK293FT cells (enzyme, UniProt P09936 1-220, looked up)
chain: MQLKPMEINPEMLNKVLSRLGVAGQWRFVDVLGLEEESLGSVPAPACALLLLFPLTAQHENFRKKQIEELKGQEVSPKVYFMKQTIGNSCGTIGLIHAVANNQDKLGFEDGSVLKQFLSETEKMSPEDRAKCFEKNEAIQAAHDAVAQEGQCRVDDKVNFHFILFNNVDGHLYELDGRMPFPVNHGASSEDTLLKDAAKVCREFTEREQGEVRFSAVALC
notes: Endogenous protein in the lysate of HEK293FT (human) cells; also called UCL-H1; endogenous UCH-L1
- binding result: binds
